Laboratory results reported in publication PMC5600358.

Target: WT1 ZF-KTS (zinc finger domain, -KTS isoform) (Homo sapiens (cDNA from HL-60 cells), UniProt P19544 312-407+411-449, internal_change)
Assay: EMSA

| Binder | binding result |
| --- | --- |
| ds59 (Pu59/Py59) (dsDNA) DNA 1: GGCGGCGCGGAGGGGCGGGCGCGGGAGGAAGGGGGCGGGACGGGGCTGTGGTGCCTGT DNA 2: ACAGGCACCACAGCCCCGTCCCGCCCCCTTCCTCCCGCGCCCGCCCCTCCGCGCCGCC | binds |
| Pu59 (G-strand) (structured_DNA) DNA: GGCGGCGCGGAGGGGCGGGCGCGGGAGGAAGGGGGCGGGACGGGGCTGTGGTGCCTGT | no binding |
| Py59 (C-strand) (ssDNA) DNA: ACAGGCACCACAGCCCCGTCCCGCCCCCTTCCTCCCGCGCCCGCCCCTCCGCGCCGCC | no binding |
